Data published in patent publication US20050065327A1 (AstraZeneca / MedImmune, published 2005).

Experiments:
Assay in all cases: cell-based or functional assay
[1] = molecular target: non-human primate IL-13 (rhesus and cynomolgus, identical sequences) with carboxyl terminus affinity tag … (rhesus and cynomolgus monkey)
[2] = molecular target: native (naturally occurring) human IL-13 released from HDLM-2 cells (human, UniProt P35225 15-146)
[3] = molecular target: human IL-13 (recombinant, bacterially derived, Peprotech) (human, UniProt P35225 15-146)
Chain of human IL-13 (recombinant, bacterially derived, Peprotech) (P35225 other isoform, or with tags, fused parts or gaps): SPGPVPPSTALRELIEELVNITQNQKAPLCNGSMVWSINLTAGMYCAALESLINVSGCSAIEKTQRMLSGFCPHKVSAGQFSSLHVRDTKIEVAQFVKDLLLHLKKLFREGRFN

Chain of non-human primate IL-13 (rhesus and cynomolgus, identical sequences) with carboxyl terminus affinity tag … (rhesus and cynomolgus monkey) (Q864V6 19-132): as the sequence (P35225 other isoform, or with tags, fused parts or gaps) above, with G3S, P7R, R12K, M44V, S69N, H85R, L102V counted along it
Chain of native (naturally occurring) human IL-13 released from HDLM-2 cells (P35225 other isoform, or with tags, fused parts or gaps): as the sequence (P35225 other isoform, or with tags, fused parts or gaps) above

B1: BAK502G9 IgG4 (antibody, V domains shown)
VH: QVQLVQSGAEVKKPGASVKVSCKASGYTFTNYGLSWVRQAPGQGLEWMGWISANNGDTNYGQEFQGRVTMTTDTSTSTAYMELRSLRSDDTAVYYCARDSSSSWARWFFDLWGRGTLVTVSS
VL: SYVLTQPPSVSVAPGKTARITCGGNIIGSKLVHWYQQKPGQAPVLVIYDDGDRPSGIPERFSGSNSGNTATLTISRVEAGDEADYYCQVWDTGSDPVVFGGGTKLTVL
IC50, TF-1 cell proliferation assay [1]: 2 nM

B2: BAK1183H4 IgG4 (antibody, V domains shown)
VH: QVQLVQSGAEVKKPGASVKVSCKASGYTFTNYGLSWVRQAPGQGLEWMGWINYDGGNTQYGQEFQGRVTMTTDTSTSTAYMELRSLRSDDTAVYYCARDSSSSWARWFFDLWGRGTLVTVSS
VL: SYVLTQPPSVSVAPGKTARITCGGNIIGSKLVHWYQQKPGQAPVLVIYDDGDRPSGIPERFSGSNSGNTATLTISRVEAGDEADYYCQVWDTGSDPVVFGGGTKLTVL
IC50, HDLM-2 cell proliferation assay [2]: 3500 nM

B3: BAK502G9 scFv (scFv, V domains shown)
VH: QVQLVQSGAEVKKPGASVKVSCKASGYTFTNYGLSWVRQAPGQGLEWMGWISANNGDTNYGQEFQGRVTMTTDTSTSTAYMELRSLRSDDTAVYYCARDSSSSWARWFFDLWGRGTLVTVSS
VL: SYVLTQPPSVSVAPGKTARITCGGNIIGSKLVHWYQQKPGQAPVLVIYDDGDRPSGIPERFSGSNSGNTATLTISRVEAGDEADYYCQVWDTGSDPVVFGGGTKLTVL
Mean TF1 IC50 [3]: 8 nM

B4: BAK1167F2 scFv (scFv, V domains shown)
VH: QVQLVQSGAEVKKPGASVKVSCKASGYTFEQTGVSWVRQAPGQGLEWMGWISANNGDTNYGQEFQGRVTMTTDTSTSTAYMELRSLRSDDTAVYYCARDSSSSWARWFFDLWGRGTLVTVSS
VL: SYVLTQPPSVSVAPGKTARITCGGNIIGSKLVHWYQQKPGQAPVLVIYDDGDRPSGIPERFSGSNSGNTATLTISRVEAGDEADYYCQVWDTGSDPVVFGGGTKLTVL
Mean TF1 IC50 [3]: 0.2 nM

B5: BAK1183H4 scFv (scFv, V domains shown)
VH: QVQLVQSGAEVKKPGASVKVSCKASGYTFTNYGLSWVRQAPGQGLEWMGWINYDGGNTQYGQEFQGRVTMTTDTSTSTAYMELRSLRSDDTAVYYCARDSSSSWARWFFDLWGRGTLVTVSS
VL: SYVLTQPPSVSVAPGKTARITCGGNIIGSKLVHWYQQKPGQAPVLVIYDDGDRPSGIPERFSGSNSGNTATLTISRVEAGDEADYYCQVWDTGSDPVVFGGGTKLTVL
Mean TF1 IC50 [3]: 0.2 nM
